Assay results published in patent publication US20240100134.

Legend:
[1] = target: T1, recombinant human plasminogen (not fused to Fc, wild-type)
T1 chain: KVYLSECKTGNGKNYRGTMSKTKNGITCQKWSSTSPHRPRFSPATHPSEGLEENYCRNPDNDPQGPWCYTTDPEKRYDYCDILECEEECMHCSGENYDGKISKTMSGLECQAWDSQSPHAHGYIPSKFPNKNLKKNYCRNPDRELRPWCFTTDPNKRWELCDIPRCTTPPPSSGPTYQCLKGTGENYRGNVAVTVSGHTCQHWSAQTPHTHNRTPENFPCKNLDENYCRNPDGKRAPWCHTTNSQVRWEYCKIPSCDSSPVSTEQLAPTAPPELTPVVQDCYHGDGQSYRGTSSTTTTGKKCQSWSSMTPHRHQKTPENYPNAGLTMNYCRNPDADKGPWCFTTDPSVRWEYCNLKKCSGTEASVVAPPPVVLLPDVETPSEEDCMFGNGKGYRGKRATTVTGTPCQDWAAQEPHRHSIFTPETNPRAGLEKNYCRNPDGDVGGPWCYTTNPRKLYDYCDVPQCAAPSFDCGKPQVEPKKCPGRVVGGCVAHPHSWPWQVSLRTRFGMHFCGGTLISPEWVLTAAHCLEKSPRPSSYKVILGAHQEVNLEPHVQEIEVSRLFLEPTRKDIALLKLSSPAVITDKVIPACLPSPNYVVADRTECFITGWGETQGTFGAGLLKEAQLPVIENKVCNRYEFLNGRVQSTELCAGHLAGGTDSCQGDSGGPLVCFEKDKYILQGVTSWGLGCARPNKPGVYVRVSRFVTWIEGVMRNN

[2] = target: recombinant plasminogen-linker-Fc fusion (human plasminogen, QA linker GQAGQAS, Fc)

B1: tissue-type plasminogen activator (protein)
chain: SYQVICRDEKTQMIYQQHQSWLRPVLRSNRVEYCWCNSGRAQCHSVPVKSCSEPRCFNGGTCQQALYFSDFVCQCPEGFAGKCCEIDTRATCYEDQGISYRGTWSTAESGAECTNWNSSALAQKPYSGRRPDAIRLGLGNHNYCRNPDRDSKPWCYVFKAGKYSSEFCSTPACSEGNSDCYFGNGSAYRGTHSLTESGASCLPWNSMILIGKVYTAQNPSAQALGLGKHNYCRNPDGDAKPWCHVLKNRRLTWEYCDVPSCSTCGLRQYSQPQFRIKGGLFADIASHPWQAAIFAKHRRSPGERFLCGGILISSCWILSAAHCFQERFPPHHLTVILGRTYRVVPGEEEQKFEVEKYIVHKEFDDDTYDNDIALLQLKSDSSRCAQESSVVRTVCLPPADLQLPDWTECELSGYGKHEALSPFYSERLKEAHVRLYPSSRCTSQHLLNRTVTDNMLCAGDTRSGGPQANLHDACQGDSGGPLVCLNDGRMTLVGIISWGLGCGQKDVPGVYTKVTNYLDWIRDNMRP
In the case of B1, the “Michelis-Menten analysis of activation (KM and Vmax), 10 mM EACA” value [1] is reported as “the kinetics of rPlg and rPlg-Fc activation are similar (as indicated by the KM and Vmax)”, the “activation measured by the hydrolysis of plasmin fluorogenic substrate H-Ala-Phe-Lys-AMC” value [1] is reported as “In the presence of tPA or uPA, comparable hydrolytic activity for rPlg and rPlg-Fc is observed” and the “Michelis-Menten analysis of activation (KM and Vmax), 10 mM EACA” value [2] is reported as “the kinetics of rPlg and rPlg-Fc activation are similar (as indicated by the KM and Vmax)”. For the same protein, the “activation measured by the hydrolysis of plasmin fluorogenic substrate H-Ala-Phe-Lys-AMC” value [2] was “In the presence of tPA or uPA, comparable hydrolytic activity for rPlg and rPlg-Fc is observed”.
